Tested on: MS2 coat protein
Experiment: apparent KD of MS2 coat protein; designed switch direction (-1 OFF switch, 1 ON switch): -1; higher = weaker reporter binding
Method in brief: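 Designed RNA switches sharing common flanks were transcribed on Illumina chips by stalled E. coli RNA polymerase. They were titrated with SNAP-549-labelled MS2 coat protein, from 0.7 or 1.5 nM doubling to 3 µM, in Tris-HCl pH 7.5 buffer with KCl, MgCl2, BSA, DTT, tRNA and Tween-20. Titrations ran without input, with 200 uM small-molecule ligand, or with an oligonucleotide input. The apparent KD of each design is the median over its clusters, after curve-fitting of normalised cluster fluorescence.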

[1] = Eterna round: R95, input ligand: FMN 200 uM
[2] = Eterna round: R95, input ligand: microRNA oligo, concentration not stated
[3] = Eterna round: R95, input ligand: none
[4] = input ligand: microRNA oligo, concentration not stated

| Sequence | apparent KD of MS2 coat protein [1] [nM] | apparent KD of MS2 coat protein [2] [nM] | apparent KD of MS2 coat protein [3] [nM] | apparent KD of MS2 coat protein (input ligand: FMN 200 uM) [nM] | apparent KD of MS2 coat protein [4] [nM] | apparent KD of MS2 coat protein (input ligand: none) [nM] |
| --- | --- | --- | --- | --- | --- | --- |
| GAAAAGGUAGGAUAUCGAGACCAUAACAUGAGGAUCACCCAUGUGAUACCUACAGUGGUCCGAGAAGGACCAUAUA [Iserdianqu] (puzzle: Exclusion 5) | 62.1 | 20.4 | 19.3 | – | – | – |
| GUCAGCUCGUGAGGAUAUAUAUAUACAUGAGGAUCACCCAUGUUAGAUCAGCUUCGGCAGUAUAUAUAGAAGGCACGAGCUGAC [ENG2/15-A1] (Eterna round: R96, puzzle: Exclusion NG 2) | – | – | – | 345 | 78.9 | 87.6 |
| GGGAUGUGAGGAUAUCGAGGUGGAAAGCACCUAACAGAAAACGAGAAGGCACAUGAGGAUCACCCAUGUAAUAC [Ditete] (puzzle: Exclusion 4) | 54.6 | 19.5 | 19.8 | – | – | – |
| UGCUGACGAGGAUAUACAUGAGGAUCACCCAUGUUGGUUCAGCGACGAUAGUCGCAAUGUAGAAGGCGUCAGCU [E3/9-A3] (Eterna round: R97, puzzle: Exclusion 3) | – | – | – | 202 | – | 765 |
| AGUAACCGUCACGAAAGUGAUGGUUACACAAGCAAAUGUACAUGAGGAUCACCCAUGUCCUCAUUUGUUCGUCUUAU [Sensor 3 - 47] (puzzle: Sensor v3, turn-off variant 2) | 83.5 | 390 | 87.5 | – | – | – |
| AAAAAACAAGGAUAUACGAAGGAGGGUUAUCUUAAUUUUUGACAUGAGGAUCACCCAUGUAGAAGGUGUUAAAA [JR_Exclusion2_Sub011] (puzzle: Exclusion 2) | 571 | 202 | 156 | – | – | – |
| CGUGUACUGCAGGAUAUCCUAGAUGCGGACAUCGGAGAAGGGCAGACAUGAGGAUCACCCAUGUGUGGCGGAGA [EX6 B.16] (Eterna round: R97, puzzle: Exclusion 6) | – | – | – | 221 | – | 67.3 |
| CUCCUCAUGACGCCUAAACACAUGAGGAUCACCCAUGUACAGGCUUUUUGUCGUCUUAUAAUAAAACCGAGGAUACG [Orlaorusti] (Eterna round: R96, puzzle: Sensor v3, turn-off variant 1) | – | – | – | 17.8 | 52.2 | 23.2 |
| AGUUGGCGAGGAUAUACAUGAGGAUCACCCAUGUGAGAGAUACUAGUGAGGUCGAUUGGUAGAAGGCGCUGACA [Mat X3R4 m19] (Eterna round: R97, puzzle: Exclusion 3) | – | – | – | 70.8 | – | 106 |
| AAUUAACAUCAGGAUAUGACUAGCCUCGGCUAGUCAGAAGGGAUGACAUGAGGAUCACCCAUGUGAUCAAUUAA [E6/2-A2] (Eterna round: R97, puzzle: Exclusion 6) | – | – | – | 392 | – | 108 |
| CCAAGCUUGUUCAUUAUCCACAUGAGGAUCACCCAUGUCUUGGCAAUUAUGACCUGCCCGUCAGGAGCUCGUCUUAU [Sensor-V1 #37] (Eterna round: R97, puzzle: Sensor, turn-off variant 1) | – | – | – | 316 | – | 346 |
| GCGGACUAGUUCGUGAGAACUGAGACAUGAGGAUCACCCAUGUAGGAUAUCGAUUCGAAACGAAUCGAGAAGGGCAUAGUCCGC [JL denovo 9] (Eterna round: R96, puzzle: Exclusion NG 3) | – | – | – | 25.1 | 17.7 | 26.8 |
| GCCUCACAUGAGGAUCACCCAUGUCAGGAUAUCUAACGCGAGGUGCAGGCACUUCGUGAGAGAAGGGACGUCAA [Iszabius] (puzzle: Exclusion 1) | – | 19.4 | – | – | – | – |
| UAUUAGUAAGGAUAUGAGUCGUAGAACAAUAGUACUACGUCUCAGAAGGUACAUGAGGAUCACCCAUGUUCAUU [Mod of Fisker 2 - Jieux - Exclusion 4] (Eterna round: R97, puzzle: Exclusion 4) | – | – | – | 27.4 | – | 19 |
| AGAAAUGCCCAUGGCCACAAGCUUUUCGCUUGUCUUACUACAUGAGGAUCACCCAUGUAACAUGGGCUCCUGAUAAU [Resoriraqu] (puzzle: Sensor v3, turn-off variant 2) | 12.5 | 11 | 12 | – | – | – |
| GCGACGCUACAUGAGGAUCACCCAUGUCCUCACAUGAGAUGGUAGGAUAUUAUAUAUACAUUGUGUGAGAAGGAUCAUCGCCCA [Eternabot solution 2] (Eterna round: R96, puzzle: Exclusion NG 3) | – | – | – | 351 | 74.8 | 121 |

| Sequence | apparent KD of MS2 coat protein [1] [nM] | apparent KD of MS2 coat protein [2] [nM] | apparent KD of MS2 coat protein [3] [nM] | apparent KD of MS2 coat protein (input ligand: FMN 200 uM) [nM] | apparent KD of MS2 coat protein [4] [nM] | apparent KD of MS2 coat protein (input ligand: none) [nM] |
| --- | --- | --- | --- | --- | --- | --- |
| CUUAGACAUGAGGAUCACCCAUGUCAGGAUAUCGUCUACCUGUGGAAACACAGGUAGACGAGAAGGGAUGUGUU [SS1 Omei 3] (puzzle: Exclusion 1) | – | 37.8 | – | – | – | – |
| AGUAACAGAGGAUAUACUAUUUUAUGUAUUUAUUAUUUUAAACAUGAGGAUCACCCAUGUAGAAGGCUGAAUGA [JMF 97] (puzzle: Exclusion 2) | – | 21.1 | – | – | – | – |
| AAGAAAGACGAAGGAUAUUCAGGCGCCGAAGUAGAAGAAGGUCGUCCGGGUGUCCUAAAACUUGAGGAUCACCCAAGUAGAAGA [Mutated MS2 EX1.2] (Eterna round: R96, puzzle: Exclusion NG 1) | – | – | – | 62.1 | 6.43 | 25.5 |
| AAGAAACAUGAGGAUCACCCAUGUGAGGAUAUGAUAUGCUAAGCGUAAGCUUAGUAUAUCAGAAGGCACAAAGG [Salishxlusion 1 - Jieux - Exclusion 1] (Eterna round: R97, puzzle: Exclusion 1) | – | – | – | 319 | – | 120 |
| GAUUAUGCGAGCUUUAGGGACAUGAGGAUCACCCAUGUUCGUCUUAUUGGUCUAGGUACACUGACAUACCUAAAUCU [JMF 68] (puzzle: Sensor v3, turn-off variant 1) | 22.7 | 37.2 | 23 | – | – | – |
| UACAGUCAUCCUUAUUGUUACAUGAGGAUCACCCAUGUUAGUAUAGUUAAGUUAUGUGAGUUUGUUGUUCGUUUUAU [JR_STOV1_v2_Sub078] (Eterna round: R97, puzzle: Sensor, turn-off variant 1) | – | – | – | 125 | – | 146 |
| GCACGGAGUGUAGGAUAUCUGUGCGAUUAGCUCAGAGAAGGACACAUGAGGAUCACCCAUGUUACCUCAAUUAGCCUUCCGUGC [Eli exng1 - 032] (Eterna round: R96, puzzle: Exclusion NG 1) | – | – | – | 30.4 | 17 | 19 |
| UGCAGACGAGGAUAUGAUAAUUAAUACAUGAGGAUCACCCAUGUAAUACUGAUCCAUGGAUCAGAAGGCGUCUGCU [E5/4-A3] (Eterna round: R97, puzzle: Exclusion 5) | – | – | – | 20.2 | – | 13.7 |
| UAGAAGUCAGGAUAUCCAUGGCGGCACUUGCGUGGUGGCGUGGAGAAGGGACAUGAGGAUCACCCAUGUAAAGG [salish99-ex4-045] (Eterna round: R96, puzzle: Exclusion 4) | – | – | – | 192 | 63.1 | 100 |
| GGAAAGGUAGGAUAUACGAAGAAAAAGGGUAGAAUAAUAACACAUGAGGAUCACCCAUGUAGAAGGACCAAAUG [Mat - Exclusion 2 - Mod of my Tesla design - D7] (puzzle: Exclusion 2) | 71.1 | 37.8 | 29 | – | – | – |
| UUUAAUUUUUUUUUUUUACAAGCUUUUUGCUCGUCUUAUACAUGAGGAUCACCCAUGUGGGUAAGGGAUAAAUUAUC [JMF 37] (puzzle: Sensor v3, turn-off variant 2) | 28.5 | 33.4 | 35.3 | – | – | – |
| AAGAAACAUGAGGAUCACCCAUGUGAGGAUAUGAGAAAGAAAAGAAAAGAAAGAAGAAUCAGAAGGCACAAAGG [salish99-ex1_r3_032] (puzzle: Exclusion 1) | 117 | 77.7 | 116 | – | – | – |
| CUCAAACAUGAGGAUCACCCAUGUCAGGAUAUGAUACUAUGUACUUCGGUACAUAGUAUCAGAAGGGAUAUGAA [Ex1-3: 66] (puzzle: Exclusion 1) | – | 69.3 | – | – | – | – |
| CUGCUCCGUGUAGGAUAUCCGUGCAACCAAUACGGAGAAGGACAUGAGGAUCACCCAUGUAUGUUAUUAUCACGUGAAGCGUCC [Design 24] (Eterna round: R96, puzzle: Exclusion NG 1) | – | – | – | 23.1 | 17 | 24.3 |
| AAGGUGUUAGGAUAUCGAAGGUUGUGGCAGGCGGGAAUUUGCGAGAAGGAACAUGAGGAUCACCCAUGUAAAAU [JR_Exclu4_Sub042] (puzzle: Exclusion 4) | – | 25 | – | – | – | – |

— the supplement of paper PMC9170038
